Laboratory results published in the RNAGym collection of RNA variant scans (doi:10.1093/molbev/msab373).

B1: Azoarcus group I ribozyme (parent)
chain: GUGCCUUGCGCCGGGAAACCACGCAAGGGAUGGUGUCAAAUUCGGCGAAACCUAAGCGCCCGCCCGGGCGUAUGGCAACGCCGAGCCAAGCUUCGGCGCCUGCGCCGAUGAAGGUGUAGAGACUAGACGGCACCCACCUAAGGCAAACGCUAUGGUGAAGGCAUAGUCCAGGGAGUGGCGAAAGUCACACAAACCGG

Variants of: B1
Assay: reverse-splicing fitness (ratio to wild type); higher = more active; in vitro selection; Mg2+ level not given
In short: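 An in vitro group I ribozyme library with randomized positions was T7-transcribed and gel-purified. In triplicate, 10 pmol RNA in EPPS pH 7.5 was reacted with 50 pmoles of a 30-nt RNA substrate for 1 h at 37 °C across several added MgCl2 levels (1–48 mM), then stopped with EDTA. Products were reverse transcribed from a substrate-complementary primer, PCR-amplified and sequenced (HiSeq 4000). Fitness is a variant's read proportion after selection over that before, normalised to wild type.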

| Variant | reverse-splicing fitness |
| --- | --- |
| C82A A111C A120U A145U C150G C169G U176G | 0.00306 |
| C82A A111C A120U A145U C150G C169U | 0.00325 |
| C82A A111C A120U A145U C150G C169U U176A | 0.0031 |
| C82A A111C A120U A145U C150G C169U U176C | 0.00305 |
| C82A A111C A120U A145U C150G C169U U176G | 0.0029 |
| C82A A111C A120U A145U C150G U176A | 0.00392 |
| C82A A111C A120U A145U C150G U176C | 0.00511 |
| C82A A111C A120U A145U C150G U176G | 0.00259 |
| C82A A111C A120U A145U C150U | 0.0169 |
| C82A A111C A120U A145U C150U C169A | 0.00321 |
| C82A A111C A120U A145U C150U C169A U176A | 0.00334 |
| C82A A111C A120U A145U C150U C169A U176C | 0.00305 |
| C82A A111C A120U A145U C150U C169A U176G | 0.00295 |
| C82A A111C A120U A145U C150U C169G | 0.00466 |
| C82A A111C A120U A145U C150U C169G U176A | 0.00315 |
| C82A A111C A120U A145U C150U C169G U176C | 0.00338 |
| C82A A111C A120U A145U C150U C169G U176G | 0.00247 |
| C82A A111C A120U A145U C150U C169U | 0.00409 |
| C82A A111C A120U A145U C150U C169U U176A | 0.00402 |
| C82A A111C A120U A145U C150U C169U U176C | 0.00348 |
| C82A A111C A120U A145U C150U C169U U176G | 0.00288 |

| Variant | reverse-splicing fitness |
| --- | --- |
| C82A A111C A120U A145U C150U U176A | 0.00713 |
| C82A A111C A120U A145U C150U U176C | 0.00936 |
| C82A A111C A120U A145U C150U U176G | 0.00353 |
| C82A A111C A120U A145U C169A | 0.00297 |
| C82A A111C A120U A145U C169A U176A | 0.00312 |
| C82A A111C A120U A145U C169A U176C | 0.00315 |
| C82A A111C A120U A145U C169A U176G | 0.00264 |
| C82A A111C A120U A145U C169G | 0.00439 |
| C82A A111C A120U A145U C169G U176A | 0.00336 |
| C82A A111C A120U A145U C169G U176C | 0.00308 |
| C82A A111C A120U A145U C169G U176G | 0.00259 |
| C82A A111C A120U A145U C169U | 0.00402 |
| C82A A111C A120U A145U C169U U176A | 0.00262 |
| C82A A111C A120U A145U C169U U176C | 0.00253 |
| C82A A111C A120U A145U C169U U176G | 0.002 |
| C82A A111C A120U A145U U176A | 0.00697 |
| C82A A111C A120U A145U U176C | 0.0103 |
| C82A A111C A120U A145U U176G | 0.00339 |
| C82A A111C A120U C150A | 0.00696 |
| C82A A111C A120U C150A C169A | 0.00599 |
| C82A A111C A120U C150A C169A U176A | 0.00546 |

| Variant | reverse-splicing fitness |
| --- | --- |
| C82A A111C A120U C150A C169A U176C | 0.00418 |
| C82A A111C A120U C150A C169A U176G | 0.00277 |
| C82A A111C A120U C150A C169G | 0.00503 |
| C82A A111C A120U C150A C169G U176A | 0.00598 |
| C82A A111C A120U C150A C169G U176C | 0.00395 |
| C82A A111C A120U C150A C169G U176G | 0.00295 |
| C82A A111C A120U C150A C169U | 0.00635 |
| C82A A111C A120U C150A C169U U176A | 0.00806 |
| C82A A111C A120U C150A C169U U176C | 0.00458 |
| C82A A111C A120U C150A C169U U176G | 0.00284 |
| C82A A111C A120U C150A U176A | 0.00497 |
| C82A A111C A120U C150A U176C | 0.00738 |
| C82A A111C A120U C150A U176G | 0.00369 |
| C82A A111C A120U C150G | 0.00737 |
| C82A A111C A120U C150G C169A | 0.00857 |
| C82A A111C A120U C150G C169A U176A | 0.00579 |
| C82A A111C A120U C150G C169A U176C | 0.00597 |
| C82A A111C A120U C150G C169A U176G | 0.00319 |
| C82A A111C A120U C150G C169G | 0.0061 |
| C82A A111C A120U C150G C169G U176A | 0.00439 |
| C82A A111C A120U C150G C169G U176C | 0.00343 |

| Variant | reverse-splicing fitness |
| --- | --- |
| C82A A111C A120U C150G C169G U176G | 0.00279 |
| C82A A111C A120U C150G C169U | 0.00639 |
| C82A A111C A120U C150G C169U U176A | 0.00407 |
| C82A A111C A120U C150G C169U U176C | 0.00486 |
| C82A A111C A120U C150G C169U U176G | 0.00331 |
| C82A A111C A120U C150G U176A | 0.00392 |
| C82A A111C A120U C150G U176C | 0.00623 |
| C82A A111C A120U C150G U176G | 0.00249 |
| C82A A111C A120U C150U | 0.0167 |
| C82A A111C A120U C150U C169A | 0.0052 |
| C82A A111C A120U C150U C169A U176A | 0.00537 |
| C82A A111C A120U C150U C169A U176C | 0.00323 |
| C82A A111C A120U C150U C169A U176G | 0.00324 |
| C82A A111C A120U C150U C169G | 0.00537 |
| C82A A111C A120U C150U C169G U176A | 0.00669 |
| C82A A111C A120U C150U C169G U176C | 0.00483 |
| C82A A111C A120U C150U C169G U176G | 0.00288 |
| C82A A111C A120U C150U C169U | 0.00638 |
| C82A A111C A120U C150U C169U U176A | 0.00738 |
| C82A A111C A120U C150U C169U U176C | 0.00534 |
